Reference: patent US20230212294A1 (MINGHUI PHARMACEUTICAL SHANGHAI, published 2023)
Substitutions are numbered along the chain they refer to.

B1: IL-P6-D06 (antibody, V domains shown)
VH: QVQLQQSGPELVRPGVSVKISCKGSGYTFTDYAIHWVKQSHAKSLEWIGVINTYSGNTNYNQKFKGRATMTVDKSSSTAYMELARLTSEDSAIYFCARGVTYGSGYPYWYFDVWGAGTTVTVSS
VL: DIVMTQSQKFMSTSVGDRVSVTCKASQNVGTNVAWYQQKPGQSPKALIYSASYRYSGVPDRFTGSGSGTDFTLTISNVQSEDLAEYFCQQYNSYPYTFGGGTKLEIK
notes: Unhumanized murine variable regions; full-length antibody
B2: IL-P7-C05 (antibody, V domains shown)
VH: EVQLVESGGDLVQPGGSLKLSCAASGFTFSSYGMSWVRQTPDKRLELVATINSNGGTTYYPDSVKGRFTISRDNAKHTLYLQMSSLKSEDTAMYYCTRNEEFRRGLAYWGQGTLVTVSA
VL: DIQMIQSPASLSVSVGETVTITCRASENIYSNLAWYQQKQGKSPQLLVYAATNLADGVPSRFSGSGSGTQYSLKINSLQSEDFGSYYCQHFWGTPPWTFGGGTKLEIK
notes: Unhumanized murine variable regions from the murine immune phage library; tested as full-length antibody expressed in ExpiCHO-S cells
B3: IL-P5-C06 (antibody, V domains shown)
VH: QVQLQQSGPELVRPGVSVKISCKGSGYTFTDYAIHWAKQGHAKSLEWIGIINTYNGNSNYNQNFKGKATMTVDKSSSTAYMELTRLTSEDSAIYYCARNYGSSFNWYFDVWGQGTTLTVSS
VL: DIVLTQSPTTMAASPGEKITITCSASSSISSNYLHWYQQKPGFSPKLLIYSTSNLASGVPARFSGSGSGTSYSLTISSVEAEDAATYYCQQYSGYPLTFGAGTKLELK
notes: Unhumanized murine variable regions from the murine immune phage library; full-length antibody
B4: IL-P5-B01 (antibody, V domains shown)
VH: EVQLQESGPSLVKPSQTLSLTCSVTGDSITSGSWNWIRKFPGNKLEYMGYISYSGSIYYNPSLKSRISITRDTSKNQYYLQLNSVTTEDTATYYCARGNPAWFAYWGQGTLVTVSA
VL: B1 VL
notes: as for B1
B5: IL-P6-C08 (antibody, V domains shown)
VH: EVKLVESGGDLVKPGGSLKLSCAASGFTFSSYGMSWVRQTSDKRLEWVATISGGGRYTYYPDSVKGRFTISRDSSKNTLYLQMSSLKSEDTAMYYCVRHYDGYLDYWGLGTTLTVSS
VL: DIQMIQSPASLSASVGETVTITCRASENIYSYLAWYQQKQGKSPQLLVYNAKTLAEGVPSRFSGSGSGTQFSLKINSLQPEDFGSYYCQHHYGTPPYTFGGGTKLEIK
notes: as for B1
B6: IL-P7-C05-H4L3-MMAE (antibody, V domains shown)
VH: EVQLVESGGGLVQPGGSLRLSCAASGFTFSSYAMSWVRQAPGKGLELVAAINSNGGSTYYADSVKGRFTISRDNAKNTLYLQMSSLRAEDTAVYYCTRNEEFRRGLAYWGQGTLVTVSS
VL: DIQMTQSPSSLSASVGDRVTITCRASENIYSNLAWYQQKPGKAPKLLIYAASNLQSGVPSRFSGSGSGTDYTLTISSLQPEDFATYYCQHFWGTPPWTFGQGTKLEIK
modifications: MMAE (Monomethyl auristatin E) coupled to the antibody; linker, site and drug load not stated
B7: IL-P7-A06 (antibody, V domains shown)
VH: QVQLQQSGPEVVRPGVSVKISCKGSGYTFTDYAMHWVKQSHAKSLEWIGIINTYNGNTNYNQKFKGKATMTVDKSSSTAYMEFARLTSEDSAIYYCARSRGPWDRYFDVWGAGTTVTVSS
VL: B1 VL with N32A, A46L, Y53N, S56T, V78M, E85D, N92S, Y96F, G100S
notes: as for B1
B8: IL-P7-C05-H4L3 (antibody, V domains shown)
VH: B6 VH
VL: B6 VL
notes: Humanized from IL-P7-C05; full-length antibody; also called ILP7C05huVH4 + ILP7C05huVL3

Target: T1, mouse B7-H3-his (mouse, UniProt Q8VE98 29-244, limits assumed)
T1 construct: His-tagged recombinant protein coated on the ELISA plate; not shown: his tag
T1 sequence (looked up): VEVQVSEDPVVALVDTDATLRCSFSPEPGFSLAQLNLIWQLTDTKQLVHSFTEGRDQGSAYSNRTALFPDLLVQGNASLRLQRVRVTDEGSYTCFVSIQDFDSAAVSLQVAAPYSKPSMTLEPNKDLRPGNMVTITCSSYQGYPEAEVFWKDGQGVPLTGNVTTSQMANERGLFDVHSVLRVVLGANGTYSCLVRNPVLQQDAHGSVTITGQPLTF
Test: ELISA, antigen coated at 2 µg/mL
Protocol: (§1) Human B7-H3-his, mouse B7-H3-his and monkey B7-H3-his were diluted to 2 μg/mL with PBS, and added to the ELISA plate at 30 μL per well. The ELISA plate was then incubated in a refrigerator at 4° C. for 16-20 hours. The next day, the ELISA plate was washed once with a lotion (PBS containing 0.05% Tween 20) and then blocked with 5% skim milk powder for 1 hour. After blocking, the ELISA plate was washed once, then added with gradient-diluted anti-B7-H3 antibodies, and incubated at room temperature for 1 h. After incubated, the ELISA plate was washed three times, then added with goat anti-human HRP-labeled secondary antibody, and incubated at room temperature for 1 h. After incubated, the ELISA plate was washed three times, then developed for 5-15 minutes by adding TMB, and finally terminated with 2M sulfuric acid. The data were recorded on the microplate reader.

In order of falling EC50:
1. B2  1.21 µg/mL
2. B1  1.13 µg/mL
3. B3  0.134 µg/mL

Target: T2, monkey B7-H3-his (monkey)
T2 chain: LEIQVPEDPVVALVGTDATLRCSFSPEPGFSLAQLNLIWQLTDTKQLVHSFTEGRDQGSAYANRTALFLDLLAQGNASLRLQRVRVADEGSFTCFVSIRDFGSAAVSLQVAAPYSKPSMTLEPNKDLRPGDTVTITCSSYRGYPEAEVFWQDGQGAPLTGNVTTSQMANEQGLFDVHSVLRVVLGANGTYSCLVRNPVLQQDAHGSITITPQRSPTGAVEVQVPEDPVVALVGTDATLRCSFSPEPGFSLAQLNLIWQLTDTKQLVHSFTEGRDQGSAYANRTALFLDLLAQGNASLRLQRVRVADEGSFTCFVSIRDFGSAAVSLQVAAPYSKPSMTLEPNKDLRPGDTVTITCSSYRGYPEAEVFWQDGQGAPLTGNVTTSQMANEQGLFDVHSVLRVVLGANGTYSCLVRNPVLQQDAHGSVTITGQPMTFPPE
Test: ELISA, antigen coated at 2 µg/mL
Protocol: as §1

In order of rising EC50:
1. B5  0.0541 µg/mL
2. B4  0.115 µg/mL
3. B3  0.116 µg/mL
4. B1  0.119 µg/mL
5. B2  0.14 µg/mL

Target: T3, B7-H3 endogenously expressed on human tumor cell lines (human, UniProt Q5ZPR3 29-534)
T3 sequence (looked up): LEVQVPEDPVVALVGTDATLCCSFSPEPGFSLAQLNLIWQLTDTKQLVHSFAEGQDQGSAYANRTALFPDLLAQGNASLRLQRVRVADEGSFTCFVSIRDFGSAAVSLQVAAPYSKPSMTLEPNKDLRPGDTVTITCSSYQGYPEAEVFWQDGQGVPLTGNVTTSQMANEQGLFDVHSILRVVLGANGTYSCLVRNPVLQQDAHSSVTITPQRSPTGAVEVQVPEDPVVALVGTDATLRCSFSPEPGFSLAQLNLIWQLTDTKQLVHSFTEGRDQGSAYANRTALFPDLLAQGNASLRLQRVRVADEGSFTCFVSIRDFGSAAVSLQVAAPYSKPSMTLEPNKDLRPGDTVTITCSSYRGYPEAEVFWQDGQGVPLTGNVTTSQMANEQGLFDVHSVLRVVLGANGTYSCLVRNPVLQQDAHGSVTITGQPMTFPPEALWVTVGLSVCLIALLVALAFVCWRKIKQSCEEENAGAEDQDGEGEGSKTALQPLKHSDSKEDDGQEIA
Test: cell-based or functional assay

B6 was tested, and the “Inhibitory IC50 against proliferation of BxPC-3 cells, 5 days, CellTiter-Glo” value was 5.5 nM.

In the case of B6, the “Inhibitory IC50 against proliferation of Calu-6 cells, 5 days, CellTiter-Glo” value is reported as 0.3 nM.

Target: T3, B7-H3 endogenously expressed on human …
Test: cell-based or functional assay
Remark: another data set of the same source

In the case of B6, the “Inhibitory IC50 against proliferation of BxPC-3 cells, 72 h, CellTiter-Glo” value is reported as 7.7 nM.

In the case of B6, the “Inhibitory IC50 against proliferation of NCI-H1975 cells, 72 h, CellTiter-Glo” value is reported as 7.4 nM.

Target: T4, B7-H3 on CHOK cells overexpressing B7-H3
T4 sequence (Q5ZPR3 whole entry, species assumed, looked up): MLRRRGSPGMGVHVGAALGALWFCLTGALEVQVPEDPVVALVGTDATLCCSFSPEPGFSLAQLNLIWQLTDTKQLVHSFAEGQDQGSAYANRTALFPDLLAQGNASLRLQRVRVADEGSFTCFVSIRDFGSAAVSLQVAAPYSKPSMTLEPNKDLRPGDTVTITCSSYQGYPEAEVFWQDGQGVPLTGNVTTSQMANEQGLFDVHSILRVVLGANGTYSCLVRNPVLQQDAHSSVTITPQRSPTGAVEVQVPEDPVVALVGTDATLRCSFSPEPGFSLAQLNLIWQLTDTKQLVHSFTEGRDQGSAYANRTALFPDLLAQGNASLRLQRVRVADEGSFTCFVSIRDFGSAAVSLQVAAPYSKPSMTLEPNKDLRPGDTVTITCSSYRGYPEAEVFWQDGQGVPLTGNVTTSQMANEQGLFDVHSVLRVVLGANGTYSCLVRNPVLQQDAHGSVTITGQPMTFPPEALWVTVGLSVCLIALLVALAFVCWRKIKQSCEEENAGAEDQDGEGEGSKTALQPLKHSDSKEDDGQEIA
Test: cell-based or functional assay

In order of rising “IC50 of CHO endocytosis experiment (toxin-labeled secondary antibody, cell viability)” value:
1. B4  0.0028 µg/mL
2. B7  0.0086 µg/mL
3. B2  0.0144 µg/mL
4. B8  0.0199 µg/mL
5. B3  0.0209 µg/mL

Target: T3, B7-H3 endogenously expressed on human …
Test: cell-based or functional assay
Remark: another data set of the same source

In order of falling “IC50 of NCI-H322 endocytosis experiment (toxin-labeled secondary antibody, cell viability)” value:
1. B2  0.00296 µg/mL
2. B8  0.00253 µg/mL
3. B3  0.0025 µg/mL
4. B1  0.00179 µg/mL

Target: T3, B7-H3 endogenously expressed on human …
Test: flow cytometry on NCI-H322 cells
Protocol: (§2) CHOK cells overexpressing B7-H3 or NCI-H322 cells endogenously expressing B7-H3 were added to a round-bottom 96-well plate at 100,000 cells per well, centrifuged to remove the supernatant, and then added with a gradient-diluted anti-B7-H3 antibody and incubated at 4 degrees for 1 h. After incubation, the cells were washed twice with FACS buffer (PBS containing 2% FBS), then added with fluorescent-labeled goat anti-human secondary antibody (Abcam, ab98596) and incubated for 0.5 h. After incubation, the cells were washed twice with FACS buffer, then resuspended with FACS buffer and detected with flow cytometry (Beckman, cytoFlex).

In order of rising EC50:
1. B2  0.0126 µg/mL
2. B8  0.0137 µg/mL
3. B7  0.072 µg/mL
4. B3  0.0795 µg/mL
5. B1  0.103 µg/mL
6. B4  0.131 µg/mL
7. B5  0.158 µg/mL

Target: T1, mouse B7-H3-his
Test: ELISA, mouse B7-H3-his coated at 2 µg/mL
Protocol: as §1

B7: no binding.
B4: no binding.
B5: no binding.

Target: T4, B7-H3 on CHOK cells overexpressing B7-H3
Test: flow cytometry on CHOK cells overexpressing B7-H3
Protocol: as §2

In order of falling EC50:
1. B3  0.954 µg/mL
2. B2  0.487 µg/mL
3. B8  0.48 µg/mL
4. B4  0.43 µg/mL
5. B7  0.278 µg/mL
6. B1  0.245 µg/mL
